Assay results published in FireProtDB (doi:10.1016/0301-4622(94)00157-f).

Conditions: Hirudo medicinalis, Thermal, DSC, reversible: yes, whole UniProt chain shown

B1: Eglin C wild type, P01051 (protein)
chain: TEFGSELKSFPEVVGKTVDQAREYFTLHYPQYDVYFLPEGSPVTLDLRYNRVRVFYNPGTNVVNHVPHVG
pH 1.1, glycine-HCl 50mM
  Tm: 41.1 °C
  heat capacity change of unfolding: 0.86 kcal/mol/K
  unfolding enthalpy (calorimetric): 39 kcal/mol
pH 1.3, glycine-HCl 50mM
  Tm: 41.3 °C
  heat capacity change of unfolding: 0.97 kcal/mol/K
  unfolding enthalpy (calorimetric): 36.7 kcal/mol
pH 1.65, glycine-HCl 50mM
  Tm: 46.1 °C
  heat capacity change of unfolding: 0.21 kcal/mol/K
  unfolding enthalpy (calorimetric): 39.3 kcal/mol
pH 1.8, glycine-HCl 50mM
  Tm: 47.3 °C
  heat capacity change of unfolding: 0.11 kcal/mol/K
  unfolding enthalpy (calorimetric): 41.9 kcal/mol
pH 2, glycine 50mM
  Tm: 46.9 °C
  heat capacity change of unfolding: 0.58 kcal/mol/K
  unfolding enthalpy (calorimetric): 41.3 kcal/mol
pH 2.15, glycine 50mM
  Tm: 51.1 °C
  heat capacity change of unfolding: 0.51 kcal/mol/K
  unfolding enthalpy (calorimetric): 46.9 kcal/mol
pH 2.25, glycine 50mM
  Tm: 51.1 °C
  heat capacity change of unfolding: 0.51 kcal/mol/K
  unfolding enthalpy (calorimetric): 46.7 kcal/mol
pH 2.75, glycine 50mM
  Tm: 57.6 °C
  heat capacity change of unfolding: 0.35 kcal/mol/K
  unfolding enthalpy (calorimetric): 51 kcal/mol
pH 2.85, glycine 50mM
  Tm: 59.5 °C
  heat capacity change of unfolding: 1.02 kcal/mol/K
  unfolding enthalpy (calorimetric): 52.3 kcal/mol
pH 2.93, glycine 50mM
  Tm: 63.9 °C
  heat capacity change of unfolding: 0.44 kcal/mol/K
  unfolding enthalpy (calorimetric): 60.1 kcal/mol
pH 3, glycine 50mM
  Tm: 63.3 °C
  heat capacity change of unfolding: 0.84 kcal/mol/K
  unfolding enthalpy (calorimetric): 57.4 kcal/mol
pH 3.25, glycine 50mM
  Tm: 69 °C
  heat capacity change of unfolding: 0.22 kcal/mol/K
  unfolding enthalpy (calorimetric): 56.1 kcal/mol
pH 7, Sodium phosphate 50mM
  Tm: 85.8 °C
  heat capacity change of unfolding: 0.18 kcal/mol/K
  unfolding enthalpy (calorimetric): 74.8 kcal/mol
pH 7.01, Sodium phosphate 50mM
  Tm: 85.3 °C
  heat capacity change of unfolding: 0.17 kcal/mol/K
  unfolding enthalpy (calorimetric): 71.1 kcal/mol
pH 7.05, Sodium phosphate 50mM
  Tm: 85.5 °C
  heat capacity change of unfolding: 0.36 kcal/mol/K
  unfolding enthalpy (calorimetric): 65.5 kcal/mol
pH 8, Sodium phosphate 50mM
  Tm: 86.5 °C
  heat capacity change of unfolding: 0.51 kcal/mol/K
  unfolding enthalpy (calorimetric): 72.3 kcal/mol
pH 9.2, bicine 50mM
  Tm: 86.3 °C
  heat capacity change of unfolding: 0.7 kcal/mol/K
  unfolding enthalpy (calorimetric): 72.1 kcal/mol
pH 10.05, glycine 50mM
  Tm: 86.5 °C
  heat capacity change of unfolding: 0.53 kcal/mol/K
  unfolding enthalpy (calorimetric): 72.5 kcal/mol
pH 10.5, glycine 50mM
  Tm: 87 °C
  heat capacity change of unfolding: 0.05 kcal/mol/K
  unfolding enthalpy (calorimetric): 73.6 kcal/mol
pH 10.55, glycine 50mM
  Tm: 86 °C
  heat capacity change of unfolding: 0.8 kcal/mol/K
  unfolding enthalpy (calorimetric): 68.5 kcal/mol
